Substitutions are numbered along the chain they refer to.
How the values were obtained:
[1] = test system: MRSA strain USA400; assay: In vivo efficacy of F11, intraperitoneal MRSA challenge; set-up: species or system C57BL/6 mice; details: 100 μg single bolus i.v. 1 h after 2×10^8 MRSA i.p.
Experimental: Mice were challenged with an intraperitoneal injection of 2×10^8 MRSA strain USA400, and 1 hour later the mice were treated with 100 μg wild-type LST, F11 or PBS. The percent survival is shown.
The in vivo efficacy of the F11 variant was further analyzed in C57BL/6 mice. Mice were challenged with an intraperitoneal injection of 2×10^8 MRSA strain USA400, and 1 hour later the mice were treated with 100 μg wild-type LST, F11 or PBS, administered as a single bolus intravenous injection. The survival rate for both protein treatments was 1/3. The 100 μg dosage was selected because wild-type LST is known to be only partially efficacious at this dose.

[2] = test system: MRSA strain USA400; assay: In vitro inhibitory activity (MIC); format: cell-based, Staphylococcus aureus
Source text: F11, P12 and F13 were screened for in vitro inhibitory activity against MRSA strain USA400 (FIG. 7).

[3] = Immunogenicity of F13, antibody titers by ELISA (CFA); format: in vivo, DR4 HLA transgenic mice; details: 100 μg s.c. in CFA, fourteen days
Experimental: (§1) The immunogenicity of the F13 variant was compared to wild-type LST in DR4 HLA transgenic mice, i.e., mice bearing partially humanized immune systems. 100 μg of wild-type LST or variant F13 were mixed with complete Freund's adjuvant and injected subcutaneously into DR4 mice. Fourteen days later, antibody titers were measured by ELISA. Variant F13 yielded more than 200-fold lower antibody titers compared to wild-type LST. To assess the impact of antibody titers on antibacterial efficacy, the mice were challenged with an intraperitoneal injection of 2×10^8 MRSA strain USA400, and 1 hour later the mice were treated with 500 μg wild-type LST, variant F13, or PBS, administered as a single bolus intravenous injection. Both mice receiving PBS sham treatments died as did both mice treated with wild-type LST. In contrast, both mice treated with variant F13 survived. Thus, the reduced immunogenicity of F13 conferred enhanced therapeutic efficacy in vivo.

[4] = test system: MRSA strain USA400; assay: Efficacy of F13 in immunized mice, MRSA challenge; format: in vivo, DR4 HLA transgenic mice; details: 500 μg i.v. 1 h after 2×10^8 MRSA i.p.
Experimental: as §1

B1: F11: variant combining cell wall binding domain mutations with Flex 9 (or derivative) catalytic domain (Table 22) (protein)
chain: AATHEHSAQWLGNYKKGYGYGPYPLGINGGMHYGVDFFMNEGTPVKAISSGKIVEAGWSNYGGGNQIGLIENDGVHRQWYMHMSKYNVKVGDYVEAGQQIGWSGSTGYSTAPHLHFQRMVGDFGNPTAQDPMPFLKSAGYGKAGGTVTPTPNTGWKTNKHGTLYKSESGSFTPNTDIITRTTGPFTSMPQSGVLKAGQTIHYDEVMKQDGHVWVGYTGNSGQRIYLPVRTWQKSTNTLGVLWGTIK
survival rate [1]: 1/3 | MIC activity relative to wild-type LST [2]: 12.5%

B2: F13: variant combining cell wall binding domain mutations with Flex 9 (or derivative) catalytic domain (Table 22) (protein)
chain: B1 chain with S166N, N236D
fold lower antibody titers compared to wild-type LST [3]: more than 200 fold | survival [4]: survived | MIC activity relative to wild-type LST [2]: 12.5% | retained original MIC activity after heating ([2]; 50° C. for 1 hour prior to assay): 25%

Source: US11091749B2, “Deimmunized lysostaphin and methods of use” (TRUSTEES OF DARTMOUTH COLLEGE, priority 2014, dated 2021)
